Assay results taken from patent publication US9051555 (SALK INSTITUTE FOR BIOLOGICAL STUDIES, dated 2015).

Target: the molecule itself
Experiment: X-ray crystallography, homodimer in the asymmetric unit

B1: isopentenyl phosphate kinase (IPK) from Methanocaldococcus jannaschii (enzyme)
chain: MLTILKLGGSILSDKNVPYSIKWDNLERIAMEIKNALDYYKNQNKEIKLILVHGGGAFGHPVAKKYLKIEDGKKIFINMEKGFWEIQRAMRRFNNIIIDTLQSYDIPAVSIQPSSFVVFGDKLIFDTSAIKEMLKRNLVPVIHGDIVIDDKNGYRIISGDDIVPYLANELKADLILYATDVDGVLIDNKPIKRIDKNNIYKILNYLSGSNSIDVTGGMKYKIEMIRKNKCRGFVFNGNKANNIYKALLGEVEGTEIDFSE
notes: The crystal holds a homodimer, two molecules in the asymmetric unit; also called IPK-Mjannaschii; IPK-Mj
B1: binds.
